In paper PMC4966837 (mAbs, 2015):
Values belong to the binder of their own block, whether it stands above or below them.

Molecular target: human βc receptor on cells (TF-1 cells, human neutrophils, human eosinophils) (Homo sapiens, UniProt P32927)
Test: radioligand binding

Chain of human βc receptor on cells (TF-1 cells, human neutrophils, human eosinophils) (P32927 17-897): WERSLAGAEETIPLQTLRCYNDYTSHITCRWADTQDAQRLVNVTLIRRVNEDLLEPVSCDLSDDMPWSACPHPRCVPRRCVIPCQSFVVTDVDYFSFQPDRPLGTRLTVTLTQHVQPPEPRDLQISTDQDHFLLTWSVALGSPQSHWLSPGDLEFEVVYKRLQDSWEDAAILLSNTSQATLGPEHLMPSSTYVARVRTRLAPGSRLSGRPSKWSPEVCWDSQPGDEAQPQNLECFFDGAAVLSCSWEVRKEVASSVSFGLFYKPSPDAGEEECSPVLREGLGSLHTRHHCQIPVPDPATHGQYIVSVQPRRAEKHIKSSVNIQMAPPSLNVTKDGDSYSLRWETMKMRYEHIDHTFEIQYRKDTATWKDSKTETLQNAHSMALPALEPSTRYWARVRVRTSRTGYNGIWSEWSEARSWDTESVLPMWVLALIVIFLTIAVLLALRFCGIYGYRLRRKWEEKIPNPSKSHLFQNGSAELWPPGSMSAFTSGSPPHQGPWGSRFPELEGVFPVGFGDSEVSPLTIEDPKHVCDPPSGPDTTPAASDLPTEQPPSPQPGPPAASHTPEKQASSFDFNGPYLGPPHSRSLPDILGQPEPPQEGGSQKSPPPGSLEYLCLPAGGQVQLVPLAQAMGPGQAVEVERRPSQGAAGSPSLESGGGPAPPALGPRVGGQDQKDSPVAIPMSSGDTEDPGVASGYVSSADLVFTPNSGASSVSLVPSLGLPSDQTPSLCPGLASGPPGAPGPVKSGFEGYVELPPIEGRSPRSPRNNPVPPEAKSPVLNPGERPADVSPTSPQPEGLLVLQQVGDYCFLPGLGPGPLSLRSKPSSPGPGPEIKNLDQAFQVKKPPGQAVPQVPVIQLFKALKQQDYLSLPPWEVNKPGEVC

- Kd: 0.25 to 0.73 nM
B1: CSL311 (human IgG4-kappa monoclonal antibody) (antibody, V domains shown)
VH: EVQLLESGGGLVQPGGSLRLSCAASGFTFPWYRVHWVRQAPGKGLEWVSSIRSSGGFPYYNYKVKGRFTISRDNSKNTLYLQMNSLRAEDTAVYYCARFYDSFFDIWGQGTMVTVSS
VL: DIQMTQSPSSVSASVGDRVTITCRASQGISSWLAWYQQKPGKAPKLLIYAASSLQSGVPSRFSGSGSGTDFTLTISSLQPEDFATYYCQQANSFPITFGQGTRLEIK

- Kd: 0.38 to 0.67 nM
B2: CSL311 Fab fragment (Fab, V domains shown)
VH: B1 VH
VL: B1 VL
